Measurements as given in article PMC11303406.

What was measured:
[1] = system: SlSWIBb (Solanum lycopersicum); experiment: MST; settings: MST: 50 mM Tris-HCl pH 8.0, 150 mM NaCl, 0.05% Tween-20, 25 C
[2] = system: SlSWIBb-K86A (Solanum lycopersicum); experiment: MST; settings: MST: 50 mM Tris-HCl pH 8.0, 150 mM NaCl, 0.05% Tween-20, 25 C
[3] = system: SlSWIBb-L44A (Solanum lycopersicum); experiment: MST; settings: MST: 50 mM Tris-HCl pH 8.0, 150 mM NaCl, 0.05% Tween-20, 25 C
[4] = system: SlSWIBb-R6A (Solanum lycopersicum); experiment: MST; settings: MST: 50 mM Tris-HCl pH 8.0, 150 mM NaCl, 0.05% Tween-20, 25 C
SlGATA29 = molecular target: T1, SlGATA29 (Solanum lycopersicum, UniProt UPI0002BCBC7B 34-326); experiment: EMSA
T1 sequence: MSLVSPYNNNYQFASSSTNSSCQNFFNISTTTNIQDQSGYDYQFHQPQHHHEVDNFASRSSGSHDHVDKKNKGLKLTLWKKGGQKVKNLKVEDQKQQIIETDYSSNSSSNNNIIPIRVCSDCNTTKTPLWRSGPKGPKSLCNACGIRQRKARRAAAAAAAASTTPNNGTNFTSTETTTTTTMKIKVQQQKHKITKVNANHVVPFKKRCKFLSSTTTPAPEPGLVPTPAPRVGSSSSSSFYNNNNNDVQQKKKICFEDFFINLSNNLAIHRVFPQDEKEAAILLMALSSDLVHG

SlSWIBa-allmut = SlSWIBa-allmut (Solanum lycopersicum, UniProt A0A3Q7HR54 1-124, R6A;L46A;K88A); experiment: MST
SlSWIBa = SlSWIBa (Solanum lycopersicum, UniProt A0A3Q7HR54 1-124); experiment: EMSA

Question: Which results are given for “GAATATATGAACATATTAAAAGTGACATTATAAGAAATGATAAAATTCAAAATTAAGGTG (double strand) [60bp InDel, Cy5]”?
Answer: Kd [1]: 0.035 µM; Kd [2]: 0.042 µM; Kd [3]: 0.047 µM; Kd [4]: 0.04 µM

B1: probe-60bp (dsDNA)
DNA 1: GAATATATGAACATATTAAAAGTGACATTATAAGAAATGATAAAATTCAAAATTAAGGTG
DNA 2: CACCTTAATTTTGAATTTTATCATTTCTTATAATGTCACTTTTAATATGTTCATATATTC
Question: Does B1 bind (SlGATA29)?
Answer: binds

B2: 60bp InDel, Cy5 (dsDNA)
DNA 1: GAATATATGAACATATTAAAAGTGACATTATAAGAAATGATAAAATTCAAAATTAAGGTG
DNA 2: CACCTTAATTTTGAATTTTATCATTTCTTATAATGTCACTTTTAATATGTTCATATATTC
Question: Does B2 bind (SlSWIBa-allmut)?
Answer: no binding

B3: 30bpSWIB-mu4 (dsDNA)
DNA 1: TAAGAAATGATAAAATTCAAAATTAAGGTG
DNA 2: CACCTTAATTTTGAATTTTATCATTTCTTA
Question: Does B3 bind (SlSWIBa)?
Answer: no binding
